In experiment [1] the target is TNCIII1–5 (first five fibronectin type III-like repeats of human tenascin C, with N-terminal transglutaminase substrate and C-terminal 6xHis tag) (UniProt P24821). Put plainly: SPR; Biacore X100; about 450 RU TNCIII1–5 amine-coupled on Sensor Chip C1, BSA on the control channel; growth factors flowed in PBS with 0.1% BSA at 30 µl/min; Langmuir fit. In general terms: In SPR one partner is held on a chip, and binding of the other changes the refractive index at the surface.

Experiment [2] concerns the target Bone morphogenetic protein (BMP)-2 (human) (UniProt P12643). Kind of experiment: ELISA; as a1 but with 4 µM heparin (40-fold excess over 100 nM TNCIII1-5) during the incubation with TNCIII1-5.
Experiment [3] deals with neurotrophin-3 (human) (UniProt P20783). Described as above.
The target in experiment [4] is Bone morphogenetic protein (BMP)-2 (human) (UniProt P12643). Kind of experiment: ELISA; cross-competition: growth factor (50 nM) coated; 10 nM TNCIII1–5 with full length TNC (0, 0.2, 0.6, 1.9, 5.6, […], 50 nM) in PBST, 1 h RT; TNCIII1–5 detected with HRP-anti-HIS; relative to binding without TNC. On the technique in general: ELISA stands for enzyme-linked immunosorbent assay.
Bone morphogenetic protein (BMP)-2 (human), sequence (P12643 283-396): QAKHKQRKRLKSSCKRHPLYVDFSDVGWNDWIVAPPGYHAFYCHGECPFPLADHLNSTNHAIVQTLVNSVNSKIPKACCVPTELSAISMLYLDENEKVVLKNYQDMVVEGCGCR

Experiment [5] concerns the target FGF-2 (human) (UniProt P09038). The description is as above.
Experiment [6] addresses T1, GST-TNCIII5 (human, UniProt P24821 983-1074).
T1 construct: tenascin C, fifth TNCIII domain, T983–A1074; source: E. coli BL21, purified (Ni-NTA agarose)
T1 sequence (looked up): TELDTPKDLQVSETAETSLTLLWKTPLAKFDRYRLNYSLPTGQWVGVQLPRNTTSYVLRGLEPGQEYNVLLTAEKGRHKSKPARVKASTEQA
Put plainly: ELISA; GST-TNCIII domains (1 µM in PBS) coated, blocked with 2% BSA; 2 nM PDGF-BB, 1 h RT; detected with anti-PDGF-BB and HRP anti-mouse. The note with it: both partners purified.

The Kd is the concentration at which binding is half-saturated. What is called koff is the rate constant with which the complex falls apart. A lower koff goes with a long-lived complex. A word on the kon: it is the second-order rate constant of association. Usually IC50 stands for the concentration that inhibits the measured activity by half. Read a high IC50 as lower potency.

FGF-2 (human), sequence (P09038 143-288): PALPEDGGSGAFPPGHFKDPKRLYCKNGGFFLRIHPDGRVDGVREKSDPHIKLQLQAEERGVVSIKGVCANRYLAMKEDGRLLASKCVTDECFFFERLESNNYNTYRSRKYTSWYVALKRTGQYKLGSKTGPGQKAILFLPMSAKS

In experiment [1], TGF-β1 (ligand) displayed a Kd of 20.3 nM, a koff of 0.000237 s⁻¹ and a kon of 11700 M⁻¹ s⁻¹.
Turning to “TNCIII1–5 (first five fibronectin type III-like repeats of human tenascin C, with N-terminal transglutaminase substrate and C-terminal 6xHis tag) (from UniProt P24821 622-1074) (domain or fragment)”, the percent of the original binding retained with 4 µM heparin in experiment [2] amounted to 66%; in experiment [3] it was 57%.
Consider “full-length native human tenascin C (from UniProt P24821 23-2201) (natural protein)”, for which, in experiment [4], the IC50 is over 50 nM and the percent inhibition of TNCIII1–5 binding at 50 nM TNC amounted to 34%. This molecule also had an IC50 in experiment [5] of 5.6 nM.

B1: PDGF-BB (ligand, human, UniProt P01127 82-190, looked up)
chain: SLGSLTIAEPAMIAECKTRTEVFEISRRLIDRTNANFLVWPPCVEVQRCSGCCNNRNVQCRPTQVQLRPVQVRKIEIVRKKPIFKKATVTLEDHLACKCETVAAARPVT
notes: Two B chains by its name; source: bought: Gibco
With B1, the “fold binding level against TNCIII4” value in experiment [6] stood at 4 fold.

B2: neurotrophin-3 (ligand)
chain: YAEHKSHRGEYSVCDSESLWVTDKSSAIDIRGHQVTVLGEIKTGNSPVKQYFYETRCKEARPVKNGCRGIDDKHWNSQCKTSQTYVRALTSENNKLVGWRWIRIDTSCVCALSRKIGRT
In experiment [1], B2 yielded a Kd of 21 nM, a koff of 0.00106 s⁻¹ and a kon of 50700 M⁻¹ s⁻¹.
